From doi:10.1101/2024.09.30.615892

Legend:
[1] = system: T1, EppR-His6 (Acinetobacter baumannii ATCC17978), ORF:cce4f89b; experiment: EMSA
T1 sequence: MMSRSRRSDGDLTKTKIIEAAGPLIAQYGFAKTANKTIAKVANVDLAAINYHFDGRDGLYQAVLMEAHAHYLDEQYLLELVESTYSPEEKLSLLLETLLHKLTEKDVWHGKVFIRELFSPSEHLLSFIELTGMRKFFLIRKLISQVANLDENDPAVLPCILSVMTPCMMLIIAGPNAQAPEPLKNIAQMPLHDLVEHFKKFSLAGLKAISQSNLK

[2] = system: EppR-His6 (Acinetobacter baumannii ATCC17978); experiment: EMSA

Substance | binding [1] | other results
AATAAAGTAGAGCACAGCTTAATTTCAAATTTAAAAGTTGTGGATAAACAAATTGATCTAGAAAAAATGATCAACGGATAAAGGAATATTTAATTTTTTTATGCGGGCCTCTACCGCTTATAGAACAGTTTTTAAACAATTTTACTTATAGCTTCATTCA (double strand) [umuDC0636-0637 promoter] | binds | –
ACCATTTTGAAATCGTAACAAATTCAAGATAAATGGTAGAGTTGAGTAAAGAGAAATTCAAATTTAAAAAATTGTGGATAAACAAGTAAAAGTCAAAAATTGTCGCAGTATCTGGCGCATTTGGTCGGAAATTCTTCAGTTCTGATCTAG (double strand) [umuC2015 promoter] | binds | –
ACTCATATTTAAGTGTTCAGAATTTCATTGATAAAAATCAAAACAGTCAGTAATAAGAACTATTTCACAATAGGTTTTGATTCTCTTCAAATTACCATTTCCGTTTTAACATCCCTGTTAAAAGCAAAATGGATTAAAATCTGATCATGAAATTTATTGTTATGCAAAAAAAATATTTCGTCAACTTGAAAATGTAACTTTTTCAAGTTACATTGTTTGTGTAGGATTTGAACGGTGAAATGGAGGCGAT (double strand) [umuDAb (1389) promoter] | binds | –
ATGTTTCCCCTAGCTTGATTTTGTAACATATTCAAGATGATATTCTAGAGATGAGCATAAATTCAAATTTAAAAAGTTGTGGATAAACAAGGGGAAGTCAAAAACTGACGTAGCCAAAAGTGCATTTGGTCGGAATTTATGCATTGCTGTACAGTGAGGCAACCATAGCATGGGAATCAAAATATTAGCTTTGAGATTGTAAATCTTTGTGGAACTTAATGTTCCACACTATTGCTTATTTATAGCAAAT (double strand) [umuDC1174-1173 promoter] | binds | –
CTTTTTTATTCATCTTTTTGGCCTTCTTATTAAATTCAAATTTACATAGTTTAAATTCAATTTAAATTTAAATTACCTTAATCTTTGAATAAAAGATATACTTTTATGATGAAATAAAATTAGGTTTAAACATGTCC (double strand) [eppR promoter] | – | Kd [1]: 123 nM
TATTTCATCCCCTTACTCATTAACTGAAATCTGCATTTTGAATTTGTAACATAATCAAGTTAACAAAATTACGGGCTGATATCTAGGGGAGTTTCAGTTGTTCGTCGAAATTATAGGTAGGAGATAAAATCTATGAAATGTCAGTTATTGATATGGAAATGTCTGAAAATGATAAGTTTTAATTGGTTATGATCGGAAATATAAGAGCTATATTTAATGGATGAGTTGAGTCTTTTAAATGTAGTAATGC (double strand) [umuC2008 promoter] | binds | –
eppR promoter | – | Kd [2]: 123 nM
